According to publication PMC4460866, “A folded and immunogenic IgE-hyporeactive variant of the major allergen Phl p 1 produced in Escherichia coli” (BMC Biotechnology, 2015):

Molecular target: the molecule itself
Test: SEC; gel filtration of the purified tag-free proteins; elution volumes corresponding to approximately 20 kDa; data not shown

Row | Protein | stoichiometry N
1 | C-terminal domain of Phl p 1.0102 (wild-type), GST tag removed (domain or fragment) KVTFHVEKGSNPNYLALLVKYVNGDGDVVAVDIKEKGKDKWIELKESWGAIWRIDTPDKLTGPFTVRYTTEGGTKTEAEDVIPEGWKADTSYESK | 2
2 | IgE-hyporeactive (K8A, N11A, D55A) mutant of the C-terminal domain of Phl p 1.0102, GST tag removed (domain or fragment) KVTFHVEAGSAPNYLALLVKYVNGDGDVVAVDIKEKGKDKWIELKESWGAIWRIATPDKLTGPFTVRYTTEGGTKTEAEDVIPEGWKADTSYESK | 2
